Data taken from paper PMC8424217 (The Journal of Biological Chemistry, 2021).
One block for each molecule: values may come before it. * marks the point of attachment. Palmitoyl = CCCCCCCCCCCCCCCC(=O)*

Key:
rat thoracic aorta rings [1] = biological target: T1, rat thoracic aorta rings (Rattus norvegicus, UniProt P49684); assay: Rat aortic ring contraction (agonist); conditions: mean ± SEM
T1 sequence (P49684 1-386): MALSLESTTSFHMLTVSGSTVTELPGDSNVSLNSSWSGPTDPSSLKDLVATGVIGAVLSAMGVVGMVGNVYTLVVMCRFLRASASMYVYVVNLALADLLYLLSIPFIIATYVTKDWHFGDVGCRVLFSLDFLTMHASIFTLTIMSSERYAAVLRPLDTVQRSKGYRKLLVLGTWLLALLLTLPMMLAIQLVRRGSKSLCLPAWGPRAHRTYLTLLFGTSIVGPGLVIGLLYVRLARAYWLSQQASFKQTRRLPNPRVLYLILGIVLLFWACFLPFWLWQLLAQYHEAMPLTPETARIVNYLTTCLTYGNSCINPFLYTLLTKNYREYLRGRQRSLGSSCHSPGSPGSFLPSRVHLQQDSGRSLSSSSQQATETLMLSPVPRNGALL
Description: (§1) Each replicate (n) was conducted on tissue obtained from at least three different animals. Data represent mean ± SEM.
(§2) Adult male Sprague-Dawley rats (Charles-River) weighing 250–300 g were housed in cages under controlled illumination (12:12 h light–dark cycle), humidity, and temperature (21–23 °C) and had free access to tap water and rat chow. All experimental procedures were performed in accordance with regulations and ethical guidelines from the Canadian Council for the Care of Laboratory Animals and received approvals of the institutional animal care and use committee of the Institut National de la Recherche Scientifique—Centre Armand-Frappier Santé Biotechnologie. As previously described ([17], [18]), the thoracic aorta was cleared of surrounding tissue and then excised from the aortic arch to the diaphragm. Conjunctive tissues were next removed from the thoracic aorta and the vessels were divided into five rings of 4 mm. The endothelium of each aortic ring was removed by gently rubbing the vessel intimal surface. Aortic rings were then placed in a 5 ml organ bath filled with oxygenated normal Krebs–Henseleit buffer. Eighty microliters of a 2.5 M potassium chloride solution (40 mM final concentration) was used to evaluate maximal contractile responses of each vessel. […] Cumulative concentration–response curves to synthetic peptides were obtained by increasing the concentration of each peptide in the remaining organ chambers (10^−11–10^−5 M).

rat thoracic aorta rings [2] = biological target: T1, rat thoracic aorta rings; assay: Modulation of URP-mediated rat aortic ring contraction; conditions: URP alone, percentage of KCl (40 mM) contraction divided by tissue response to URP (10^−6 M), mean ± SEM, n = 22, read-out: URP-mediated contraction Emax, control (no pretreatment)
Description: as §1, §2

[3] = biological target: T2, human urotensin II receptor, on HEK 293 cells stably expressing it (human) (UniProt Q9UKP6)
T2 sequence: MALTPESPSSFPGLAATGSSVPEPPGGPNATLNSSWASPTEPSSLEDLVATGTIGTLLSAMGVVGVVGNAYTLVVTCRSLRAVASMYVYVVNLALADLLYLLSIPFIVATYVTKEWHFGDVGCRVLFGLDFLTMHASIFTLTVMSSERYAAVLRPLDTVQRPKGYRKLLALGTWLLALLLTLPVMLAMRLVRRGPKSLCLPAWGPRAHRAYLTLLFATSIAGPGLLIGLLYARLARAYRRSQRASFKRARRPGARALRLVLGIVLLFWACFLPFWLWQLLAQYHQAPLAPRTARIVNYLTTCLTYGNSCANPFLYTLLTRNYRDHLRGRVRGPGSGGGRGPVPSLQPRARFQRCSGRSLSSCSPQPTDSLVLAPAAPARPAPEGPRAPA

[4] = biological target: T3, human urotensin II receptor, on CHO-K1 cells stably expressing it (human) (UniProt Q9UKP6)
T3 sequence: T2 sequence

[5] = biological target: T3, human urotensin II receptor, on CHO-K1 cells stably expressing it (human); remark: listed apart in the source
[6] = scale: % of the activation induced by hUII

contraction pEC50 (rat thoracic aorta rings [1]; n = 22 (hUII, URP), n = 5 (pepducins)): 8.10 ± 0.06
Emax (rat thoracic aorta rings [1]; percentage of contraction induced by 40 mM KCl, n = 22): 108 ± 3%
Emax (rat thoracic aorta rings [2]): 105 ± 3%
Molecule: CC(C)[C@H](NC(=O)[C@@H]1CSSC[C@H](NC(=O)[C@H](C)N)C(=O)N[C@@H](Cc2ccccc2)C(=O)N[C@@H](Cc2c[nH]c3ccccc23)C(=O)N[C@@H](CCCCN)C(=O)N[C@@H](Cc2ccc(O)cc2)C(=O)N1)C(=O)O [URP, urotensin II-related peptide, reference compound]

G13 activation (BRET biosensor), HEK 293-hUT cells; pEC50 [3]: 6.33 -log EC50
Gi activation (BRET biosensor), HEK 293-hUT cells; pEC50 [3]: 10.1 -log EC50
Gq activation (BRET biosensor), HEK 293-hUT cells; pEC50 [3]: 7.31 -log EC50
G13 activation (BRET biosensor), HEK 293-hUT cells; Emax [3, 6]: 154
Gi activation (BRET biosensor), HEK 293-hUT cells; Emax [3, 6]: 96
Gq activation (BRET biosensor), HEK 293-hUT cells; Emax [3, 6]: 9
β-arrestin 2 conformational change (BRET biosensor), HEK 293-hUT cells; maximum efficacy at 10^-6 M [3, 6]: 15
IP1 production (IP-One terbium immunoassay), CHO-hUT cells, 40 min; efficacy at 10^-5 M (% of the hUII maximum effect) [4]: 35
IP1 production (IP-One terbium immunoassay), CHO-hUT cells, 40 min; pEC50 [4]: < 6 -log EC50
ERK1/2 phosphorylation (western blot), CHO-hUT cells, 5 min; Emax (% of the hUII maximum effect) [5]: 34
ERK1/2 phosphorylation (western blot), CHO-hUT cells, 5 min; pEC50 [5]: 7.26 -log EC50
B1: hUT-Pep2 (peptide)
peptide: Palmitoyl-RPLDTVQRPKGY-NH2
SMILES: CCCCCCCCCCCCCCCC(=O)N[C@@H](CCCNC(=N)N)C(=O)N1CCC[C@H]1C(=O)N[C@@H](CC(C)C)C(=O)N[C@@H](CC(=O)O)C(=O)N[C@H](C(=O)N[C@H](C(=O)N[C@@H](CCC(N)=O)C(=O)N[C@@H](CCCNC(=N)N)C(=O)N1CCC[C@H]1C(=O)N[C@@H](CCCCN)C(=O)NCC(=O)N[C@@H](Cc1ccc(O)cc1)C(N)=O)C(C)C)[C@@H](C)O

G13 activation (BRET biosensor), HEK 293-hUT cells; pEC50 [3]: 6.51 -log EC50
Gi activation (BRET biosensor), HEK 293-hUT cells; pEC50 [3]: 10.4 -log EC50
Gq activation (BRET biosensor), HEK 293-hUT cells; pEC50 [3]: 8.34 -log EC50
β-arrestin 1 conformational change (BRET biosensor), HEK 293-hUT cells; pEC50 [3]: 8.08 -log EC50
β-arrestin 2 conformational change (BRET biosensor), HEK 293-hUT cells; pEC50 [3]: 7.74 -log EC50
G12 activation (BRET biosensor), HEK 293-hUT cells; maximum efficacy at 10^-6 M [3, 6]: 5
G13 activation (BRET biosensor), HEK 293-hUT cells; Emax [3, 6]: 185
Gi activation (BRET biosensor), HEK 293-hUT cells; Emax [3, 6]: 97
Gq activation (BRET biosensor), HEK 293-hUT cells; Emax [3, 6]: 29
β-arrestin 1 conformational change (BRET biosensor), HEK 293-hUT cells; Emax [3, 6]: 18
β-arrestin 2 conformational change (BRET biosensor), HEK 293-hUT cells; Emax [3, 6]: 19
IP1 production (IP-One terbium immunoassay), CHO-hUT cells, 40 min; efficacy at 10^-5 M (% of the hUII maximum effect) [4]: 60
IP1 production (IP-One terbium immunoassay), CHO-hUT cells, 40 min; pEC50 [4]: < 6 -log EC50
ERK1/2 phosphorylation (western blot), CHO-hUT cells, 5 min; Emax (% of the hUII maximum effect) [5]: 56
ERK1/2 phosphorylation (western blot), CHO-hUT cells, 5 min; pEC50 [5]: 6.7 -log EC50
B2: [Trp^1, Leu^2]hUT-Pep3 (peptide)
peptide: Palmitoyl-WLSQRASFKRARR-NH2
SMILES: CCCCCCCCCCCCCCCC(=O)N[C@@H](Cc1c[nH]c2ccccc12)C(=O)N[C@@H](CC(C)C)C(=O)N[C@@H](CO)C(=O)N[C@@H](CCC(N)=O)C(=O)N[C@@H](CCCNC(=N)N)C(=O)N[C@@H](C)C(=O)N[C@@H](CO)C(=O)N[C@@H](Cc1ccccc1)C(=O)N[C@@H](CCCCN)C(=O)N[C@@H](CCCNC(=N)N)C(=O)N[C@@H](C)C(=O)N[C@@H](CCCNC(=N)N)C(=O)N[C@@H](CCCNC(=N)N)C(N)=O
